Laboratory results published in patent publication US20090137003A1.

B1: antibody clone 800 (antibody, human IgG1, kappa, V domains shown)
VH: QVQLVESGGAVVQPGRSLRLSCEVSGFSFSDYGMNWVRQGPGKGLEWVAVIWHDGSNKNYLDSVKGRFTVSRDNSKNTLFLQMNSLRAEDTAVYYCARTPYEFWSGYYFDFWGQGTLVTVSS
VL: AIQLTQSPSSLSASVGDRVTLTCRASQGITDSLAWYQQKPGKAPKVLLYAASRLESGVPSRFSGRGSGTDFTLTISSLQPEDFATYYCQQYSKSPATFGPGTKVEIRR
B2: antibody clone 894 (antibody, human IgG1, kappa, V domains shown)
VH: QVQLVESGGGVVQPGKSLRLSCAASGFRFSDYGMHWVRQAPSKGLEWVAVIWHDGSNIRYADSVRGRFSISRDNSKNTLYLQMNSMRADDTAFYYCARVPFQIWSGLYFDHWGQGTLVTVSS
VL: EIVMTQSPATLSVSPGERATLSCRASQSVGNNLAWYQQRPGQAPRLLIYGASTRATGIPARFSGSGSGTEFTLTISSLQSEDFAVYYCQQYDKWPETFGQGTKVDIKR
B3: antibody clone 827 (antibody, human IgG1, kappa, V domains shown)
VH: QVQLVQSGAEVKKPGASVKVSCRVSGHTFTALSKHWMRQGPGGGLEWMGFFDPEDGDTGYAQKFQGRVTMTEDTATGTAYMELSSLTSDDTAVYYCATVAAAGNFDNWGQGTLVTVSS
VL: DIQMTQSPSSLAASVGDRVTITCRASQFISSYLHWYQQRPGKAPKLLMYAASTLQSGVPSRFSGSGSGTDFTLTISSLQPEDFATYYCQQSYTNPYTFGQGTKLEIKR
B4: Fab fragment of antibody clone 859 (Fab)
VH: QVQLVESGGGVVQPGRSLRLSCAVSGSSFSKYGIHWVRQAPGKGLEWVAVISYDGSKKYFTDSVKGRFTIARDNSQNTVFLQMNSLRAEDTAVYYCATGGGVNVTSWSDVEHSSSLGYWGLGTLVTVSS
light: DIQMTQSPSSLSASVGDRVTITCRASQGIRNYLAWYQQKPGKVPKLLVFAASTLQSGVPSRFSGSGSGTDFTLTISSLQPEDVATYYCQRYNSAPLTFGGGTKVEIKRTVAAPSVFIFPPSDEQLKSGTASVVCLLNNFYPREAKVQWKVDNALQSGNSQESVTEQDSKDSTYSLSSTLTLSKADYEKHKVYACEVTHQGLSSPVTKSFNRGEC
B5: Fab fragment of antibody clone 796 (Fab)
VH: QVQLVESGGGVVQPGRSLRLSCAASGFSFSHFGMHWVRQVPGKGLEWVAIISYDGNNVHYADSVKGRFTISRDNSKNTLFLQMNSLRDDDTGVYYCAKDDVATDLAAYYYFDVWGRGTLVTVSS
light: DIVMTQTPLSLSVTPGQPASISCRSSQSLLRSDGKTFLYWYLQKPGQSPQPLMYEVSSRFSGVPDRFSGSGSGADFTLNISRVETEDVGIYYCMQGLKIRRTFGPGTKVEIKRTVAAPSVFIFPPSDEQLKSGTASVVCLLNNFYPREAKVQWKVDNALQSGNSQESVTEQDSKDSTYSLSSTLTLSKADYEKHKVYACEVTHQGLSSPVTKSFNRGEC
B6: antibody clone 818 (antibody, human IgG1, kappa, V domains shown)
VH: QVTLRESGPAVVKPTETLTLTCAFSGFSLNAGRVGVSWIRQPPGQAPEWLARIDWDDDKAFRTSLKTRLSISKDSSKNQVVLTLSNMDPADTATYYCARTQVFASGGYYLYYLDHWGQGTLVTVSS
VL: DIQMTQSPSSLSASVGDRVTITCRASQTIASYVNWYQQKPGRAPSLLIYAASNLQSGVPPRFSGSGSGTDFTLTISGLQPDDFATYYCQQSYSYRALTFGGGTKVEIKR
B7: Fab fragment of antibody clone 816 (Fab)
VH: EVQLLESGGGLVQPGGSLRLSCVASGFTFSTYAMTWVRQAPGKGLEWVSVIRASGDSEIYADSVRGRFTISRDNSKNTVFLQMDSLRVEDTAVYFCANIGQRRYCSGDHCYGHFDYWGQGTLVTVSS
light: DIVMTQSPLSLPVTPGEPASISCRSSQSLLHSDGRYYVDWYLQKPGQSPHLLIYLASNRASGVPDRFTGSGSGTDFTLKISRVEAEDVGVYYCMQGLHTPWTFGQGTKVDIKRTVAAPSVFIFPPSDEQLKSGTASVVCLLNNFYPREAKVQWKVDNALQSGNSQESVTEQDSKDSTYSLSSTLTLSKADYEKHKVYACEVTHQGLSSPVTKSFNRGEC
B8: antibody clone 880 (antibody, human IgG1, kappa, V domains shown)
VH: QITLKESGPTLVRPTQTLTLTCTFSGFSLSTSKLGVGWIRQPPGKALEWLALVDWDDDRRYRPSLKSRLTVTKDTSKNQVVLTMTNMDPVDTATYYCAHSAYYTSSGYYLQYFHHWGPGTLVTVSS
VL: DIQMTQSPSSLAASVGDRVTITCRASQTIASYVNWYQQKPGKAPNLLIYAASSLQSGVPSRFSGSGSGTDFTLTISSLQPEDFASYFCQQSYSFPYTFGQGTKLDIKR
B9: Fab fragment of antibody clone 853 (Fab)
VH: EVQLVQSGAEVKKPGQSLKISCKTSGYIFTNYWIGWVRQRPGKGLEWMGVIFPADSDARYSPSFQGQVTISADKSIGTAYLQWSSLKASDTAIYYCARPKYYFDSSGQFSEMYYFDFWGQGTLVTVSS
light: EIVLTQSPGTLSLSPGERATLSCRASQSVSSNYLAWYQQKPGQAPRLLIYGASSRAAGMPDRFSGSGSGTDFTLTISRLEPEDFAVYYCQQYGNSPLTFGGGTEVEIKRTVAAPSVFIFPPSDEQLKSGTASVVCLLNNFYPREAKVQWKVDNALQSGNSQESVTEQDSKDSTYSLSSTLTLSKADYEKHKVYACEVTHQGLSSPVTKSFNRGEC
B10: antibody clone 831 (antibody, human IgG1, kappa, V domains shown)
VH: QVQLVQSGAEVKKPGASVKVSCKASANIFTYAMHWVRQAPGQRLEWMGWINVGNGQTKYSQRFQGRVTITRDTSATTAYMELSTLRSEDTAVYYCARRASQYGEVYGNYFDYWGQGTLVTVSS
VL: DIQMTQSPSTLSASVGDRLTITCRASQNIYNWLAWYQQKPGKAPKLLIYDASTLESGVPSRFSGSGSGTEFTLTISSLQPDDFATYYCQQYNSLSPTFGQGTKVEIKR

Columns and labels:
[1] = target: RSV protein F of strain B1 (RSV B1 (ATCC number VR-1400)) (UniProt O36634); assay: cell-based or functional assay
Sequence of RSV protein F of strain B1 (RSV B1 (ATCC number VR-1400)) (O36634 26-574 limits assumed): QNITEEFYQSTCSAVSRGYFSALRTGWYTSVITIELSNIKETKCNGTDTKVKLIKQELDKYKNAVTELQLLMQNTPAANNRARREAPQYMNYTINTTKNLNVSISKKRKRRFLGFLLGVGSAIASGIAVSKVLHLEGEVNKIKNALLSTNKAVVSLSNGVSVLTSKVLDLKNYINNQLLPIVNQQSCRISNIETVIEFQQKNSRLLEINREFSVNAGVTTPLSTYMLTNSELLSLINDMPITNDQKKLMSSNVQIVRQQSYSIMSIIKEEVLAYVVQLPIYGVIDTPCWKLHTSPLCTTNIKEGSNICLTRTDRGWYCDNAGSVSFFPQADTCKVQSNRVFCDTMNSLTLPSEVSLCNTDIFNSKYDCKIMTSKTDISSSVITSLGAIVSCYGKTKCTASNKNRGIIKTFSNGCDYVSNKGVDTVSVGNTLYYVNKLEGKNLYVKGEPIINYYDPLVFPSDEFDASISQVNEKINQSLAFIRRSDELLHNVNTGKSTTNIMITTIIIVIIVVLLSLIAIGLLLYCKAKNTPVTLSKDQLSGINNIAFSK

[2] = target: RSV protein F of strain Long (RSV Long (ATCC number VR-26)) (UniProt P12568); assay: cell-based or functional assay
Sequence of RSV protein F of strain Long (RSV Long (ATCC number VR-26)) (P12568 26-574): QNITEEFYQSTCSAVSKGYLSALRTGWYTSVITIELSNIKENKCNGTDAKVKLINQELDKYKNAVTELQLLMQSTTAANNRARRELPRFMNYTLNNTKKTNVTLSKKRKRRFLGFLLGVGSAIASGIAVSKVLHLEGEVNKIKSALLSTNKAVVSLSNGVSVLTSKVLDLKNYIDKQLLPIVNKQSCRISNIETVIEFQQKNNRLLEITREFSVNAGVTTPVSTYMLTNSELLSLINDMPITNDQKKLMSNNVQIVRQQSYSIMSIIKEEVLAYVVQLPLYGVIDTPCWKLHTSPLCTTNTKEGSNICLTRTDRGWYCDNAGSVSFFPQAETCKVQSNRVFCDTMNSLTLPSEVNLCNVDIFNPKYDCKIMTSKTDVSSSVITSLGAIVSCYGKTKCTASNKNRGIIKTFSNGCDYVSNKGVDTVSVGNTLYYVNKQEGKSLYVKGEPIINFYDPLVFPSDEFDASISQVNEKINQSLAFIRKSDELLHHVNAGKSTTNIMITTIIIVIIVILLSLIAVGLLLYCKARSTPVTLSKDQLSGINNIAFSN

[3] = target: RSV protein F of strain B Wash/18537 (RSV B Wash/18537 (ATCC number VR-1580)) (UniProt P13843); assay: cell-based or functional assay
Sequence of RSV protein F of strain B Wash/18537 (RSV B Wash/18537 (ATCC number VR-1580)) (P13843 26-574): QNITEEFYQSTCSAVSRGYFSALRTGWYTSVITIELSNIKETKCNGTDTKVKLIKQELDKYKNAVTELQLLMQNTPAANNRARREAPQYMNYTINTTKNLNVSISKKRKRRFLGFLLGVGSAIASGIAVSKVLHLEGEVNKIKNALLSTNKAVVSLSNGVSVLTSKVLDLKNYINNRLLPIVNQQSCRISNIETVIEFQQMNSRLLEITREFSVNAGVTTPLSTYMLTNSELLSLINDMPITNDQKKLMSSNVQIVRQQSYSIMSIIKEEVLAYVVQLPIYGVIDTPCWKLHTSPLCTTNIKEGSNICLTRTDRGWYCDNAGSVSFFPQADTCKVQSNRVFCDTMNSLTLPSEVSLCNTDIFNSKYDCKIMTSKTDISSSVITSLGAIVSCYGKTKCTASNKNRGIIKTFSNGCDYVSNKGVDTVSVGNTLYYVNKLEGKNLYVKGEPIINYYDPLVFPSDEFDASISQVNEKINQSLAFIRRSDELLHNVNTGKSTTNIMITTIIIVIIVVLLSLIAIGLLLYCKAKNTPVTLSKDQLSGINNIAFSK

[4] = target: RSV protein G (recombinant G protein) (respiratory syncytial virus (RSV), strain not stated); assay: SPR (Biacore), Fab on recombinant antigen

| Binder | PRNT EC50 with complement, RSV B1 [1] [µg/mL] | PRNT EC50 with complement, RSV Long [2] [µg/mL] | PRNT EC50 with complement, RSV 18537 [3] [µg/mL] | Kd [4] [nM] | koff [4] [s⁻¹] | kon [4] [M⁻¹ s⁻¹] | t1/2 [4] [min] |
| --- | --- | --- | --- | --- | --- | --- | --- |
| B1 | 0.16 | 0.15 |  |  |  |  |  |
| B2 |  | 0.08 | 0.07 |  |  |  |  |
| B3 |  | 0.16 | 0.1 |  |  |  |  |
| B4 |  |  |  | 0.12 | 4.63e-05 | 380000 | 250 |
| B5 |  |  |  | 0.48 | 0.000403 | 833000 | 28.7 |
| B6 |  | 0.15 | 0.21 |  |  |  |  |
| B7 |  |  |  | 0.09 | 0.000178 | 2.02e+06 | 65 |
| B8 | 0.4 | 0.38 | 0.95 |  |  |  |  |
| B9 |  |  |  | 0.79 | 0.0014 | 1.77e+06 | 8.25 |
| B10 | 1.66 | 0.08 | 0.72 |  |  |  |  |
